{
  "source": "patent US20090215195A1",
  "target": "Human complement component C5 (human) (UniProt P01031)",
  "assay": "cell-based or functional assay",
  "data": [
    {"substance": "Recombinant SET1 (SSL7), allele from Staphylococcus aureus clinical isolate GL1", "values": [
      {"measurement": "SET1 concentration at maximum survival of E. coli in human serum", "value": 2.1, "unit": "nM"},
      {"measurement": "surviving E. coli cells in human serum, maximum level", "value": 14, "unit": "%"}
    ]}
  ]
}
